Experimental data: the supplement of paper PMC9170038

Each sequence was assayed on MS2 coat protein (assay: apparent KD of MS2 coat protein, switch ON state; designed switch direction (-1 OFF switch, 1 ON switch): -1; higher = weaker reporter binding). Details: FMN input: 0 or 200 uM; Eterna round: R93 (includes R88 designs).
Method in brief: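 Each design's apparent KD comes from the median of binding-curve fits to its normalised clusters. Those clusters carried RNA switches transcribed on-chip from Illumina sequencing clusters. SNAP-549-labelled MS2 coat protein was titrated onto them in twofold steps (0.7 or 1.5 nM to 3 µM; per step 0.8–1.5 h down to 10–20 min). Conditions were 100 mM Tris-HCl pH 7.5, 80 mM KCl, 4 mM MgCl2, without or with constant ligand.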

Compared with “AAGAAACAUGAGGAUCACCCAUGUGAGGAUAUGGAAAAGAAAAGAAAAGAAAGAAGAACCAGAAGGCACAAAGG [Neferkare (VI) Pepiseneb]”, “AAAAAACAUGAGGAUCACCCAUGUGAGGAUAUCGCUAGUGAGACCCUAGUGUCAGUGAUGAGAAGGCACAUAAA [Brourd 613 Mod 8 - Jieux - Exclusion 1]” is 2.2-fold lower in “apparent KD of MS2 coat protein” value: 71.8 nM for the first, 32.8 nM for the second.

Compared with “AAGAAGUGAGGAUAUCGAAGACUGUCGAAAAGACAGUCGAACGAGAAGGCACAUGAGGAUCACCCAUGUGAGGA [Marsurpial 65% 2]”, “AUGGUAGGAGGAUAUACAUAGAUACAGAUACAUGUAGACGUACAUGAGGAUCACCCAUGUAGAAGGCCUAUAAA [Mat - Same state - Mayanna Mod - D150]” is 3.7-fold higher in “apparent KD of MS2 coat protein” value: 26.2 nM for the first, 97.9 nM for the second.

First: AGUAGAUCAGGAUAUACAUAAAUGAUAAUUAUGUAACUUUUACAUGAGGAUCACCCAUGUAGAAGGGAUCUACA [Ex2 Design 130: Not so Super Stable 18]
Second: UGGGAGUCAGGAUAUACGAACAUGUCGCCAGAUGUCAAGGUACAUGAGGAUCACCCAUGUAGAAGGGACGAGAA [salish99-Ex2-28]
The “apparent KD of MS2 coat protein” value of the first is 3.6-fold lower: 14.8 nM for the first, 53.1 nM for the second.

Going from “AAGAAGCUAGGAUAUACUAACGAAACUAAUGCAUAGAUAAAACAUGAGGAUCACCCAUGUAGAAGGAGCAGAAU [JR_Exc002_Sub014]” to “AAAAAACAUGAGGAUCACCCAUGUGAGGAUAUACAGAAUGGAAUAAAAUAACAAGAAAGUAGAAGGCACAAAAA [Ex 1 May 38]”, the “apparent KD of MS2 coat protein” value rises from 21.6 nM to 36.2 nM (1.7-fold).

“AAAAAGGAAGGAUAUACAUGAGGAUCACCCAUGUAAAAAAAAAAAAAGGGAAAAAAAAGUAGAAGGUCCAAAAA [Montuemsaf Djedankhre]” and “AAGAAGUAAGGAUAUCGAAGACUGUCGAAAAGACAGUCGAACGAGAAGGUACAUGAGGAUCACCCAUGUGAGAA [Opal 24]” are within 1.5-fold of each other in “apparent KD of MS2 coat protein” value: 33 nM for the first, 25.5 nM for the second.

Compared with “AACAGUACAGGAUAUACAUGAGGAUCACCCAUGUGAAAAUUAAGUGGCGUACCACAAUGUAGAAGGGUACUGAA [Mat - Exclusion 3 - Eli mod - D46]”, “AUCUUGUCAGGAUAUGACUACAUAAAAAAAAAAAAAUGUAGUCAGAAGGGACAUGAGGAUCACCCAUGUACUAA [hsl_exclusion4]” is 2.5-fold lower in “apparent KD of MS2 coat protein” value: 103 nM for the first, 41.9 nM for the second.

Compared with “AAAACUGGAGGAUAUACAUGAGGAUCACCCAUGUGUGGAUGAGCUGAGACGGCAUCACGUAGAAGGCCACAAAA [Gilly Gone Silly 39 - Jieux - Exclusion 3]”, “AAAAAGUCAGGAUAUACAAAAGUGCGAAAGCACAAAAUGGGACAUGAGGAUCACCCAUGUAGAAGGGACAAGAA [JL In the Red 01 (Mod)]” is 4.5-fold higher in “apparent KD of MS2 coat protein” value: 33.2 nM for the first, 148 nM for the second.

“CUCAAGUUAGGAUAUCUAAGAAAAGAAGAGAAAGAAAAGAAAGAGAAGGAACAUGAGGAUCACCCAUGUAAGAA [EteRNA is fun!]” and “CCCUCACAUGAGGAUCACCCAUGUGAGGAUAUGCAUAAAAAAAAAAAAAAAAAAAAAUGCAGAAGGCACAUGAA [jn_irvington]” are within 1.5-fold of each other in “apparent KD of MS2 coat protein” value: 18.4 nM for the first, 13 nM for the second.

Going from “AAAAAGUCAGGAUAUGUAGCAUGAUACGAAAGUAUCAUGCUACAGAAGGGACAUGAGGAUCACCCAUGUGAUCA [Ex4: 938]” to “UAUAGACAUGAGGAUCACCCAUGUGAGGAUAUGAGUGACUACAGGACAUCACGUACAAUCAGAAGGCACAGAAA [JR_Exc001_Sub016]”, the “apparent KD of MS2 coat protein” value falls from 365 nM to 47.9 nM (7.6-fold).

First: AAAAAUGGAGGAUAUACAUGAGGAUCACCCAUGUUAGACCUAAAAAAAGGGAAAGAAAGUAGAAGGCCAUAAAA [Ex 3 May 29]
Second: AAAAAGGCAGGAUAUACAUGAGGAUCACCCAUGUGCAAAAAAAAAAAAAAAAAAACAUGUAGAAGGGCCGAAAA [Skynet (1?)]
The “apparent KD of MS2 coat protein” value of the first is 2.6-fold lower: 17.5 nM for the first, 45.2 nM for the second.

Going from “CAGUACUGAGGAUAUACAUGAGGAUCACCCAUGUGUAAAAGCUAGGAAACUAGCAAAUGUAGAAGGCAGUACUG [Ex3: 816]” to “AAAAAACAUGAGGAUCACCCAUGUGAGGAUAUACAAAACCCAUAUAAAAAGGGAAAAAGUAGAAGGCGCAAAAA [wbt round 1 mod 8]”, the “apparent KD of MS2 coat protein” value rises from 13.8 nM to 20.8 nM (1.5-fold).

Going from “AAAUUGUCAGGAUAUCCUAUAAUAAUAAAAUAGAGGAAAUAGGAGAAGGGACAUGAGGAUCACCCAUGUAAAAC [May 84]” to “AAAAGUAGAGGAUAUACAUGAGGAUCACCCAUGUAGAAAGGAAGUAUAUAUAUGGCGUGUAGAAGGCUGCAUGA [Mat - Mod of Nando]”, the “apparent KD of MS2 coat protein” value falls from 49.2 nM to 26.7 nM (1.8-fold).

“AACAGUACAGGAUAUACAUGAGGAUCACCCAUGUAAAAGGGAAGUGGCGUACCACAAAGUAGAAGGGUACUGGA [Moding Maslow revisited (73) 6]” and “GAAAACAGAGGAUAUACAAAAUUAUGACGAAAGUCAUAAAAACAUGAGGAUCACCCAUGUAGAAGGCUGAAGAA [Meechl MS2 Ex2]” are within 1.5-fold of each other in “apparent KD of MS2 coat protein” value: 37.6 nM for the first, 28.2 nM for the second.

“AAGAACCUAGGAUAUACUAAAGAAAUGAAAAGAAAUAAAGAACAUGAGGAUCACCCAUGUAGAAGGAGGAAGAA [Sewadjkare III]” and “AAGAAGUCAGGAUAUACAAAAUAAAAGAAAAGAAAGAAAGAACAUGAGGAUCACCCAUGUAGAAGGGACAAGAA [Nerikare]” are within 1.5-fold of each other in “apparent KD of MS2 coat protein” value: 43.4 nM for the first, 57.8 nM for the second.

Going from “GGAUGCGAAGGAUAUACAUGAGGAUCACCCAUGUGAGAGAAAAAAGUGAGAAAGAAAAGUAGAAGGUCGUGUCG [salish99-ex3-93]” to “CUCUUGUCAGGAUAUGCAAGAAAAGAAAAGAAAGAAAAGAAGCAGAAGGGACAUGAGGAUCACCCAUGUAAGAA [EteRNA is fun!]”, the “apparent KD of MS2 coat protein” value rises from 28.8 nM to 76.7 nM (2.7-fold).

Compared with “AUAGUACAUGAGGAUCACCCAUGUCAGGAUAUUGGAUAUGACAAAAAAAAAAAGUUAACGAGAAGGGACUAUAA [EX1 Malc#15]”, “AAGGGACAUGAGGAUCACCCAUGUGAGGAUAUGCUAUGGAAAAUAAAAAAUAAACAUAGCAGAAGGCAUAAAAA [Mat - Exclusion 1 - Eli mod - D37]” is 2.1-fold higher in “apparent KD of MS2 coat protein” value: 31.2 nM for the first, 64.8 nM for the second.

First: AAAAUGUGAGGAUAUGUACGAAAAAAUAAAAAAAUAAAAGUACAGAAGGCACAUGAGGAUCACCCAUGUGUGGG [EX4 400: Minimal 13]
Second: AGAAAGCUAGGAUAUACCUGGAGGGUUCGAAAUGAAAUAAAACAUGAGGAUCACCCAUGUAGAAGGAGCCCGAG [Veislela]
The “apparent KD of MS2 coat protein” value of the first is 2.7-fold higher: 113 nM for the first, 42.6 nM for the second.

“CUCAAGUAAGGAUAUAGAAGAAAAGAAGAGAAAGAAAAGAACUAGAAGGUACAUGAGGAUCACCCAUGUAAGAA [EteRNA is fun!]” and “AAGGGACAUGAGGAUCACCCAUGUUAGGAUAUCGGAAAAGGAAAAAAAAAAAAGAAGACGAGAAGGGACACCAA” are within 1.5-fold of each other in “apparent KD of MS2 coat protein” value: 41.6 nM for the first, 59.5 nM for the second.

“AAAAAGCGAGGAUAUACAUGAGGAUCACCCAUGUGAAAAAAAAAAAAAAAAAAAAAAAGUAGAAGGCGCAAAAA [GC super strong! + G boost]” and “GGAAAGCAAGGAUAUGCAAACAAACAAACAAACAAAAGGGAACAUGAGGAUCACCCAUGUAGAAGGUGCAAACA [Exclusion 2 Two redone]” are within 1.5-fold of each other in “apparent KD of MS2 coat protein” value: 46.4 nM for the first, 41.9 nM for the second.

Going from “AUAGGGCUAGGAUAUACAUGAGGAUCACCCAUGUAAACAGAUAGAUCAAGGUAAACGAGUAGAAGGAGCAAUAA [JR_Exc003_Sub210]” to “AGGGUACAUGAGGAUCACCCAUGUUAGGAUAUUGAAAAGAAAAGAAAAGAAAGAAGAACAAGAAGGGACAAGAA [Userkare]”, the “apparent KD of MS2 coat protein” value rises from 19.5 nM to 56.5 nM (2.9-fold).

First: CUCUUGUCAGGAUAUGAAAGAAAAGAAAAGAAAGAAAAGAAUCAGAAGGGACAUGAGGAUCACCCAUGUAAGAA [EteRNA is fun!]
Second: AAGAAUGCAGGAUAUACAAAAUAAAAGAAAAGAAAGAAAGAACAUGAGGAUCACCCAUGUAGAAGGGCAAAGAA [Menwadjre Sihathor]
The “apparent KD of MS2 coat protein” value of the first is 2.1-fold higher: 64 nM for the first, 30 nM for the second.

Going from “AAGAACGGAGGAUAUACUAAAGAAAUGAAAAGAAAUAAAGAACAUGAGGAUCACCCAUGUAGAAGGCCGAAGAA [Sehebre]” to “AAAAAGAUAGGAUAUACGUACAUGUCGAAAGACGUGAAGGGACAUGAGGAUCACCCAUGUAGAAGGGUUAAAAA [Mat - Exclusion 2 - JL mod - D91]”, the “apparent KD of MS2 coat protein” value rises from 17 nM to 185 nM (11-fold).

In the case of “AAGAACUGAGGAUAUACAUGAGGAUCACCCAUGUAAAAGAAAGAAGGGAAAGAGAAAAGUAGAAGGCAGAAGAA [Inamunnifnebu]”, the “apparent KD of MS2 coat protein” value is reported as 20.6 nM.
